# Test results as given in patent US20250122277A1 (Novartis, published 2025).
# B1: recombinant human AIN457 (batch KB03303A) (antibody, V domains shown)
# VH: EVQLVESGGGLVQPGGSLRLSCAASGFTFSNYWMNWVRQAPGKGLEWVAAINQDGSEKYYVGSVKGRFTISRDNAKNSLYLQMNSLRVEDTAVYYCVRDYYDILTDYYIHYWYFDLWGRGTLVTVSS
# VL: not shown
# notes: same variable domains as m1; also called AIN457 (KB03303A); NVP-AIN457 (KB03303A)
# Tests used:
# rec rhesus monkey IL-17 [1] = biological target: T1, rec rhesus monkey IL-17 (rhesus monkey, UniProt F6T3G5 24-155); assay: SPR (BIAcore 2000), mean n = 12
# T1 sequence: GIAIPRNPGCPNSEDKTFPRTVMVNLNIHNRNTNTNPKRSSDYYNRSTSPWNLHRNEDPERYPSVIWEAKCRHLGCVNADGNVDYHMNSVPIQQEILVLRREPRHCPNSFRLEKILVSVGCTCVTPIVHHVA
# Excerpt: (§1) Determination of kinetic binding parameters and levels of crossreactivity are done by surface plasmon resonance measurements using the optical biosensor BIAcore® 2000 (BIAcore AB, Upsalla, Sweden, see Lit. HS 1,2 for details). This technology allows the label-free determination the microscopic rate constants for binding (kₒₙ) and dissociation (koff) of a ligand to a receptor. It is therefore especially suited for characterizing the antibody-antigen interactions. […] Covalent binding of Fcγ capture antibody is done with the ‘Amine coupling kit’ provided by BIAcore (BIAcore, Cat. No. BR-1000-50). […] As a guideline, 1000 RUs correspond to a mass transfer of 1 ng/mm². […] The results are compared to the protocol described in Table 9 (see below).
# (§2) Two independent runs testing 6 IL-17 concentrations in each run are performed. Concentrations for human IL-17 are 2, 4, 8, 12, 16, 20 nM and 10, 20, 30, 40, 50, 60 nM for all other species. Complete data analysis yields n=12 individual measurements for each IL-17 species. The KD as well as SEM is reported.
# rec rhesus monkey IL-17 [2] = biological target: T1, rec rhesus monkey IL-17; assay: SPR (BIAcore 2000), 10 nM IL-17, run 2
# Excerpt: as §1, §2
# [3] = biological target: T2, rec cynomolgous monkey IL-17 (cynomolgous monkey); assay: SPR (BIAcore 2000), 10 nM IL-17, run 2
# Excerpt: as §1, §2
# rec marmoset IL-17 [4] = biological target: T3, rec marmoset IL-17 (marmoset, UniProt A0ACM8QD00 24-153); assay: SPR (BIAcore 2000), 10 nM IL-17, run 2
# T3 sequence: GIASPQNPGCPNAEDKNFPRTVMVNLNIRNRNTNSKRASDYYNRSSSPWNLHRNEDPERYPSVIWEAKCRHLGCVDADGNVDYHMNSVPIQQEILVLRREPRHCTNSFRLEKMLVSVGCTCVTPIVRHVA
# Excerpt: as §1, §2
# [5] = biological target: T2, rec cynomolgous monkey IL-17; assay: SPR (BIAcore 2000), 25 nM IL-17, run 2
# Excerpt: as §1
# (§3) Two independent runs testing 6 IL-17 concentrations in each run are performed. […] Complete data analysis yields n=12 individual measurements for each IL-17 species. The KD as well as SEM is reported.
# rec rhesus monkey IL-17 [6] = biological target: T1, rec rhesus monkey IL-17; assay: SPR (BIAcore 2000), 30 nM IL-17, run 2
# Excerpt: as §1, §2
# [7] = biological target: T2, rec cynomolgous monkey IL-17; assay: SPR (BIAcore 2000), 30 nM IL-17, run 2
# Excerpt: as §1, §2
# rec marmoset IL-17 [8] = biological target: T3, rec marmoset IL-17; assay: SPR (BIAcore 2000), 30 nM IL-17, run 2
# Excerpt: as §1, §2
# rec rhesus monkey IL-17 [9] = biological target: T1, rec rhesus monkey IL-17; assay: SPR (BIAcore 2000), 30 nM IL-17, run 1
# Excerpt: as §1, §2
# [10] = biological target: T2, rec cynomolgous monkey IL-17; assay: SPR (BIAcore 2000), 30 nM IL-17, run 1
# Excerpt: as §1, §2
# rec marmoset IL-17 [11] = biological target: T3, rec marmoset IL-17; assay: SPR (BIAcore 2000), 30 nM IL-17, run 1
# Excerpt: as §1, §2
# rec marmoset IL-17 [12] = biological target: T3, rec marmoset IL-17; assay: SPR (BIAcore 2000), 50 nM IL-17, run 2
# Excerpt: as §1, §2
# rec rhesus monkey IL-17 [13] = biological target: T1, rec rhesus monkey IL-17; assay: SPR (BIAcore 2000), 20 nM IL-17, run 2
# Excerpt: as §1, §2
# [14] = biological target: T2, rec cynomolgous monkey IL-17; assay: SPR (BIAcore 2000), 20 nM IL-17, run 2
# Excerpt: as §1, §2
# rec marmoset IL-17 [15] = biological target: T3, rec marmoset IL-17; assay: SPR (BIAcore 2000), 20 nM IL-17, run 2
# Excerpt: as §1, §2
# rec rhesus monkey IL-17 [16] = biological target: T1, rec rhesus monkey IL-17; assay: SPR (BIAcore 2000), 20 nM IL-17, run 1
# Excerpt: as §1, §2
# [17] = biological target: T2, rec cynomolgous monkey IL-17; assay: SPR (BIAcore 2000), 20 nM IL-17, run 1
# Excerpt: as §1, §2
# rec marmoset IL-17 [18] = biological target: T3, rec marmoset IL-17; assay: SPR (BIAcore 2000), 20 nM IL-17, run 1
# Excerpt: as §1, §2
# rec marmoset IL-17 [19] = biological target: T3, rec marmoset IL-17; assay: SPR (BIAcore 2000), mean n = 10
# Excerpt: as §1, §2
# rec rhesus monkey IL-17 [20] = biological target: T1, rec rhesus monkey IL-17; assay: SPR (BIAcore 2000), 60 nM IL-17, run 1
# Excerpt: as §1, §2
# rec rhesus monkey IL-17 [21] = biological target: T1, rec rhesus monkey IL-17; assay: SPR (BIAcore 2000), 60 nM IL-17, run 2
# Excerpt: as §1, §2
# rec rhesus monkey IL-17 [22] = biological target: T1, rec rhesus monkey IL-17; assay: SPR (BIAcore 2000), mean of run 1 + 2
# Excerpt: as §1, §2
# [23] = biological target: T2, rec cynomolgous monkey IL-17; assay: SPR (BIAcore 2000), mean of run 1 + 2
# Excerpt: as §1, §2
# rec rhesus monkey IL-17 [24] = biological target: T1, rec rhesus monkey IL-17; assay: SPR (BIAcore 2000), 40 nM IL-17, run 2
# Excerpt: as §1, §2
# rec marmoset IL-17 [25] = biological target: T3, rec marmoset IL-17; assay: SPR (BIAcore 2000), 40 nM IL-17, run 2
# Excerpt: as §1, §2
# [26] = biological target: T2, rec cynomolgous monkey IL-17; assay: SPR (BIAcore 2000), 15 nM IL-17, run 2
# Excerpt: as §1, §3
# [27] = biological target: T2, rec cynomolgous monkey IL-17; assay: SPR (BIAcore 2000), 5 nM IL-17, run 2
# Excerpt: as §1, §3
# [28] = biological target: T2, rec cynomolgous monkey IL-17; assay: SPR (BIAcore 2000), 25 nM IL-17, run 1
# Excerpt: as §1, §3
# [29] = biological target: T2, rec cynomolgous monkey IL-17; assay: SPR (BIAcore 2000), 5 nM IL-17, run 1
# Excerpt: as §1, §3
# [30] = biological target: T2, rec cynomolgous monkey IL-17; assay: SPR (BIAcore 2000), mean (printed n = 10)
# Excerpt: as §1, §2
# rec rhesus monkey IL-17 [31] = biological target: T1, rec rhesus monkey IL-17; assay: SPR (BIAcore 2000), 40 nM IL-17, run 1
# Excerpt: as §1, §2
# rec marmoset IL-17 [32] = biological target: T3, rec marmoset IL-17; assay: SPR (BIAcore 2000), 40 nM IL-17, run 1
# Excerpt: as §1, §2
# rec rhesus monkey IL-17 [33] = biological target: T1, rec rhesus monkey IL-17; assay: SPR (BIAcore 2000), 50 nM IL-17, run 1
# Excerpt: as §1, §2
# rec marmoset IL-17 [34] = biological target: T3, rec marmoset IL-17; assay: SPR (BIAcore 2000), 50 nM IL-17, run 1
# Excerpt: as §1, §2
# rec rhesus monkey IL-17 [35] = biological target: T1, rec rhesus monkey IL-17; assay: SPR (BIAcore 2000), 10 nM IL-17, run 1
# Excerpt: as §1, §2
# [36] = biological target: T2, rec cynomolgous monkey IL-17; assay: SPR (BIAcore 2000), 10 nM IL-17, run 1
# Excerpt: as §1, §2
# rec marmoset IL-17 [37] = biological target: T3, rec marmoset IL-17; assay: SPR (BIAcore 2000), 10 nM IL-17, run 1
# Excerpt: as §1, §2
binder,measurement,setting,value
B1,Kd,rec rhesus monkey IL-17 [1],8.96 nM
same,Kd,rec rhesus monkey IL-17 [2],7.04 nM
same,Kd,[3],6.9 nM
same,Kd,rec marmoset IL-17 [4],1.13 nM
same,Kd,[5],7.34 nM
same,Kd,rec rhesus monkey IL-17 [6],8.16 nM
same,Kd,[7],8.32 nM
same,Kd,rec marmoset IL-17 [8],1.57 nM
same,Kd,rec rhesus monkey IL-17 [9],6.04 nM
same,Kd,[10],7.89 nM
same,Kd,rec marmoset IL-17 [11],1.17 nM
same,Kd,rec marmoset IL-17 [12],1.67 nM
same,Kd,rec rhesus monkey IL-17 [13],5.93 nM
same,Kd,[14],7.17 nM
same,Kd,rec marmoset IL-17 [15],1.17 nM
same,Kd,rec rhesus monkey IL-17 [16],7.34 nM
same,Kd,[17],4.75 nM
same,Kd,rec marmoset IL-17 [18],0.782 nM
same,Kd,rec marmoset IL-17 [19],1.21 nM
same,Kd,rec rhesus monkey IL-17 [20],13.1 nM
same,Kd,rec rhesus monkey IL-17 [21],12.3 nM
same,Kd,rec rhesus monkey IL-17 [22],9 nM
same,Kd,[23],6 nM
same,Kd,rec rhesus monkey IL-17 [24],9.74 nM
same,Kd,rec marmoset IL-17 [25],1.36 nM
same,Kd,[26],7.41 nM
same,Kd,[27],7.08 nM
same,Kd,[28],6.26 nM
same,Kd,[29],1.1 nM
same,Kd,[30],6 nM
same,Kd,rec rhesus monkey IL-17 [31],12.4 nM
same,Kd,rec marmoset IL-17 [32],1.17 nM
same,Kd,rec rhesus monkey IL-17 [33],11.2 nM
same,Kd,rec marmoset IL-17 [34],1.21 nM
same,Kd,rec rhesus monkey IL-17 [35],2.28 nM
same,Kd,[36],2.24 nM
same,Kd,rec marmoset IL-17 [37],0.895 nM
